Laboratory results: PMC7980463 (Proceedings of the National Academy of Sciences of the …, 2021)

T1: MsGyrB47 (D348A) (M. smegmatis, UniProt A0QNE0 1-427, D348A)
T1 sequence: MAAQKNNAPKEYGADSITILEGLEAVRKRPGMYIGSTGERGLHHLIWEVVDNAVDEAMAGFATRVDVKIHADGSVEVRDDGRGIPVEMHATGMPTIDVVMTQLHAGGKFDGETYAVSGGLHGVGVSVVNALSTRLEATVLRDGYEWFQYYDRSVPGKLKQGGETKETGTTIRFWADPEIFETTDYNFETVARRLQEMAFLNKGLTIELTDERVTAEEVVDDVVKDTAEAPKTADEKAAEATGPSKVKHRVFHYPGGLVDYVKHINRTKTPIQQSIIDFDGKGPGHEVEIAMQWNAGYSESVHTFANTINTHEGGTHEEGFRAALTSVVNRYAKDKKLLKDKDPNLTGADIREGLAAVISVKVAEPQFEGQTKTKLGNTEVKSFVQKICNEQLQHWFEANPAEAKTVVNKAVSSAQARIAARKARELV


Experiments:
crystal structure = biological target: the molecule itself; test: crystal structure
MsGyrB47 (D348A) = biological target: T1, MsGyrB47 (D348A); test: cell-based or functional assay

Binder | stoichiometry N (crystal structure) | stimulation of the ATPase activity by MsMfpA, compared with wild-type MsGyrB47 (MsGyrB47 (D348A)) [fold decrease]
MsGyrB47, the ATPase (N-terminal) domain of M. smegmatis GyrB (domain or fragment) MAAQKNNAPKEYGADSITILEGLEAVRKRPGMYIGSTGERGLHHLIWEVVDNAVDEAMAGFATRVDVKIHADGSVEVRDDGRGIPVEMHATGMPTIDVVMTQLHAGGKFDGETYAVSGGLHGVGVSVVNALSTRLEATVLRDGYEWFQYYDRSVPGKLKQGGETKETGTTIRFWADPEIFETTDYNFETVARRLQEMAFLNKGLTIELTDERVTAEEVVDDVVKDTAEAPKTADEKAAEATGPSKVKHRVFHYPGGLVDYVKHINRTKTPIQQSIIDFDGKGPGHEVEIAMQWNAGYSESVHTFANTINTHEGGTHEEGFRAALTSVVNRYAKDKKLLKDKDPNLTGDDIREGLAAVISVKVAEPQFEGQTKTKLGNTEVKSFVQKICNEQLQHWFEANPAEAKTVVNKAVSSAQARIAARKARELV | 2 | 
Mycobacterium smegmatis MfpA (natural protein, M. smegmatis) MRIGANGDETVWADEEFAGRDFRDEDLSRIRTERVVFTECDFSGVDLSESEHHGSAFRNCTFRRSTIWHSTFTNCSLLGSVFTECRIRPVTFVECDFTLAVLGGCDLRAVDLSDCRLREVSLVGADLRKAVLRRADLTGSRVQDARLEEADLRGTRVDPTFWTTAKVRGAKIDIEQALAYAAAHGLAVHGG |  | ~2
